In patent publication US20240166765A1 (ICONIC THERAPEUTICS, published 2024):
Numbering of substitutions follows the chain as printed. Read-outs that look alike come from different tables or passages of the source.

How the values were obtained:
[1] = molecular target: T1, rabbit TF-His (rabbit (Oryctolagus cuniculus), UniProt P24055 33-250); test: SPR (Biacore), antibody captured by anti-human IgG
T1 construct: also called rabbit TF ECD-His
T1 sequence (P24055 other isoform, or with tags, fused parts or gaps): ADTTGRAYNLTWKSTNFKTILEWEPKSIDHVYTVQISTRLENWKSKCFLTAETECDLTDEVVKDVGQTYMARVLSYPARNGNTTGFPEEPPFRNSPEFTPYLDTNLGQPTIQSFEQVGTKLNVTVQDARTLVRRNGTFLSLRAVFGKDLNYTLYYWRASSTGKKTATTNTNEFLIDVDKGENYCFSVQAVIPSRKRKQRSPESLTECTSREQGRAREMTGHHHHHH

[2] = molecular target: T2, pig TF-His (pig (Sus scrofa)); test: SPR (Biacore), antibody captured by anti-human IgG
T2 construct: also called pig TF ECD-His; pTF
T2 chain: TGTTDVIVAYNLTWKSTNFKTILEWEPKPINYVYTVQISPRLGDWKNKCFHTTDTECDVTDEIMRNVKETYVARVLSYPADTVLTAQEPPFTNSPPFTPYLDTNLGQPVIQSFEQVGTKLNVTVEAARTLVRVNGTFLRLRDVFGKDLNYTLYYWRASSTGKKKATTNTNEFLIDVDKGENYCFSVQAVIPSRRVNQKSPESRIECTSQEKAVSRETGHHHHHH

[3] = molecular target: T3, human TF ECD-His6 (human, UniProt P13726 33-251); test: BLI (ForteBio Octet)
T3 construct: made in Expi293 cells; the entry holds the ECD with the C-terminal TG-His6; also called TF-His; hTF

[4] = molecular target: T4, cynomolgus TF ECD-His6 (cynomolgus monkey (Macaca fascicularis)); test: BLI (ForteBio Octet)
T4 construct: made in Expi293 cells; also called TF-His; cTF
T4 chain: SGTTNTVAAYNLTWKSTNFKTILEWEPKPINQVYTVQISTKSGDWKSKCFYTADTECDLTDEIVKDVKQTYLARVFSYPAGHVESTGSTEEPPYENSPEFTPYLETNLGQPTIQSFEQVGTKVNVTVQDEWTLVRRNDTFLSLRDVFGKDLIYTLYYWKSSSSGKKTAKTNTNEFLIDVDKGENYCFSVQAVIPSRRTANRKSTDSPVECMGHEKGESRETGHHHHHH

[5] = molecular target: T5, pig TF ECD-His (pig TF-His) protein (pig (Sus scrofa)); test: Biacore, antibody captured by anti-human IgG on CM5 chip, pig TF-His as analyte
T5 construct: Extracellular domain with a C-terminal TG-His6 tag, used as analyte in Biacore; also called pTF
T5 chain: T2 chain

[6] = molecular target: T6, human Tissue Factor (hTF), endogenously expressed on human TF-positive cells (human, UniProt P13726 33-295); test: cell-based or functional assay
[7] = molecular target: T6, human Tissue Factor (hTF), endogenously …; test: flow cytometry competition on A431 cells, 100 nM unlabelled antibody, competitor 20 nM 25A-Alexa488
[8] = molecular target: T6, human Tissue Factor (hTF), endogenously …; test: flow cytometry competition on A431 cells, 100 nM unlabelled antibody, competitor 20 nM 43Ea-Alexa488
[9] = molecular target: T7, h159-219_r (human/rat chimera); test: live cell staining, flow cytometry
T7 construct: on HEK293 cells

[10] = molecular target: T8, h1-107_r (human/rat chimera); test: live cell staining, flow cytometry
T8 construct: on HEK293 cells
T8 chain: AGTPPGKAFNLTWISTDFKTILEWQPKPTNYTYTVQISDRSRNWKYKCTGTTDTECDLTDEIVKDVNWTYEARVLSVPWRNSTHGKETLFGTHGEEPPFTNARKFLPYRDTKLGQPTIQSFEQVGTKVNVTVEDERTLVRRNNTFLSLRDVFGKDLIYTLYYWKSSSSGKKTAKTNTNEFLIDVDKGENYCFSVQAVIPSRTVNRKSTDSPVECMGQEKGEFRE

[11] = molecular target: T9, h1-77_r (human/rat chimera); test: live cell staining, flow cytometry
T9 construct: Human TF with ECD residues 1-77 replaced by the rat segment; on HEK293 cells

[12] = molecular target: T10, rTF (rat TF) (rat, UniProt P42533 29-252); test: live cell staining, flow cytometry
T10 construct: Expressed on the surface of transfected HEK293 cells

[13] = molecular target: T11, hTF (human, UniProt P13726 33-251); test: live cell staining, flow cytometry
T11 construct: also called human TF; human Tissue Factor

[14] = molecular target: T12, r141-194_h (rat/human chimera, UniProt P42533 29-252); test: live cell staining, flow cytometry
T12 construct: on HEK293 cells

[15] = molecular target: T13, hTF_N171H_T197K (human, UniProt P13726 33-251); test: live cell staining, flow cytometry
T13 construct: on HEK293 cells
T13 chain: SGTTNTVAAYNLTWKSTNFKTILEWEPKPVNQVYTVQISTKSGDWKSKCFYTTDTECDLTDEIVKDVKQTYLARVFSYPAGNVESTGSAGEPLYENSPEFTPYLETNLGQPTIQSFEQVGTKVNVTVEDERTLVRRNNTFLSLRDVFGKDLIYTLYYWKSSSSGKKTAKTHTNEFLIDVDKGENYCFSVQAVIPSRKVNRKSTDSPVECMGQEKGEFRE

[16] = molecular target: T10, rTF (rat TF); test: live cell staining, flow cytometry; remark: listed apart in the source
[17] = molecular target: T14, hTF_K149N (human, UniProt P13726 33-251); test: live cell staining, flow cytometry
T14 construct: on HEK293 cells; not shown: transmembrane and cytoplasmic part of the construct expressed on HEK293 cells
T14 chain: T13 chain with K149N, H171N, K197T

[18] = molecular target: T15, h108-219_r (human/rat chimera); test: live cell staining, flow cytometry
T15 construct: on HEK293 cells
T15 chain: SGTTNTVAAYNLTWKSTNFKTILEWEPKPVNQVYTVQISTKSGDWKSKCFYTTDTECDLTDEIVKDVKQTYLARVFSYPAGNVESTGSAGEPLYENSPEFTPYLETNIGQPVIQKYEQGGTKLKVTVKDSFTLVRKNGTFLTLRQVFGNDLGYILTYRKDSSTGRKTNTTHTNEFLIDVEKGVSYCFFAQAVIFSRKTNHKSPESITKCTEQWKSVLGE

[19] = molecular target: T16, pig TF-His (pig (Sus scrofa)); test: SPR (Biacore), antibody captured by anti-human IgG on CM5 chip, pig TF-His in solution
T16 construct: also called pig TF ECD-His; pTF
T16 chain: T2 chain

[20] = molecular target: T17, rabbit TF-His (rabbit (Oryctolagus cuniculus), UniProt P24055 33-250); test: SPR (Biacore), antibody captured by anti-human IgG on CM5 chip, rabbit TF-His in solution
T17 construct: also called rabbit TF ECD-His
T17 sequence (P24055 other isoform, or with tags, fused parts or gaps): as the sequence (P24055 other isoform, or with tags, fused parts or gaps) above

B1: 1G (antibody, human IgG1, V domains shown)
VH: EVQLLESGGGLVQPGGSLRLSCAASGFTFSSYAMAWVRQAPGKGLEWVSAISGSGGLTYYADSVKGRFTISRDNSKNTLYLQMNSLRAEDTAVYYCAKAPYGYYMDVWGKGTTVTVSS
VL: not shown
notes: human IgG1
binding result [1]: no binding (tested: TF-His titration from 100 nM)
binding result [2]: no binding (tested: TF-His titration from 100 nM)
Kd [3]: 2.2 nM
Kd [4]: 2.7 nM

B2: anti-TF antibody 29D (antibody, human IgG1, V domains shown)
VH: QVQLVESGGGVVQPGRSLRLSCAASGFTFHSRGMHWVRQAPGKGLEWVAVITYDGINKYYADSVEGRFTISRDNSKNTLYLQMNSLRAEDTAVYYCARDGVYYGVYDYWGQGTLVTVSS
VL: not shown
notes: Human IgG1
binding result [5]: no binding
% GM-CSF, 2.56 nM antibody, MDA-MB-231 cells + FVIIa [6]: 38%
% GM-CSF, 6.4 nM antibody, MDA-MB-231 cells + FVIIa [6]: 15%
% GM-CSF, 16 nM antibody, MDA-MB-231 cells + FVIIa [6]: 7%
% GM-CSF, 40 nM antibody, MDA-MB-231 cells + FVIIa [6]: 6%
% GM-CSF, 100 nM antibody, MDA-MB-231 cells + FVIIa [6]: 5%
% 25A binding [7]: 70%
% 43Ea binding [8]: 64%

B3: 29D (antibody, human IgG1, V domains shown)
VH: B2 VH
VL: not shown
notes: human IgG1
binding result [1]: no binding (tested: TF-His titration from 100 nM)
binding result [2]: no binding (tested: TF-His titration from 100 nM)
Kd [3]: 3.3 nM
Kd [4]: 12 nM

B4: 39A (antibody, human IgG1, V domains shown)
VH: QVQLVQSGAEVKKPGSSVKVSCKASGGTFSSNAIGWVRQAPGQGLEWMGSIIPIIGFANYAQKFQGRVTITADESTSTAYMELSSLRSEDTAVYYCARDSGYYYGASSFGMDVWGQGTTVTVSS
VL: EIVMTQSPATLSVSPGERATLSCRASQSVSSNLAWYQQKPGQAPRLLIYGASTRATGIPARFSGSGSGTEFTLTISSLQSEDFAVYYCEQYNNLPLTFGGGTKVEIK
notes: Human IgG1
Percent antibody binding to TF construct relative to hTF [9]: 141%
Percent antibody binding to TF construct relative to hTF [10]: 0%
Percent antibody binding to TF construct relative to hTF [11]: 0%
Percent antibody binding to TF construct relative to hTF [12]: 0%
Percent antibody binding to TF construct relative to hTF [13]: 100%
Percent antibody binding to TF construct relative to hTF [14]: 0%
Percent antibody binding to TF construct relative to hTF [15]: 94%
Percent antibody binding to TF construct relative to hTF [16]: 0%
Percent antibody binding to TF construct relative to hTF [17]: 131%

B5: 5G9 (antibody, V domains shown)
VH: QVQLVESGGGVVQPGRSLRLSCKASGFNIKDYYMHWVRQAPGKGLEWIGLIDPENGNTIYDPKFQGRFTISADNSKNTLFLQMDSLRPEDTAVYYCARDNSYYFDYWGQGTPVTVSS
VL: DIQMTQSPSSLSASVGDRVTITCKASQDIRKYLNWYQQKPGKAPKLLIYYATSLADGVPSRFSGSGSGTDYTFTISSLQPEDIATYYCLQHGESPYTFGQGTKLEIT
notes: Previously described anti-TF antibody; also called humanized TF8-5G9; CNTO 860
Percent antibody binding to TF construct relative to hTF [18]: 0%

B6: 1G (antibody, human IgG1, V domains shown)
VH: B1 VH
VL: not shown
notes: Human IgG1; also called antibody 1G
binding result [19]: no binding
binding result [20]: no binding

B7: 29D (antibody, human IgG1, V domains shown)
VH: B2 VH
VL: not shown
notes: Human IgG1; also called antibody 29D
binding result [19]: no binding
binding result [20]: no binding
